Assay results taken from the supplement of paper PMC10567573.

B1: GLT8D2 (parent)
chain: QEAKLLHWNGRHKPWDFPSVHNDL
B2: DVL3 (parent)
chain: FPELGYSYGGGSASSQHSEGSRSS

Variants of: B1
Experiment: protein stability index of a GFP-peptide fusion (GPS, HEK-293T) (PSI 1-6); higher = more stable
Conditions: c terminus: a fixed tail appended
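Also: lentivirally expressed fusions sorted by FACS into six bins by GFP to DsRed ratio, PSI derived from sequencing read proportions per bin multiplied by bin number.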

Variant | protein stability index
QECKLLHWNGRHKPWDFPSVHNDL | 2.23
QEKKLLHWNGRHKPWDFPSVHNDL | 2.59
QETKLLHWNGRHKPWDFPSVHNDL | 2.75
QEFKLLHWNGRHKPWDFPSVHNDL | 2.25
QELKLLHWNGRHKPWDFPSVHNDL | 2.59
QEQKLLHWNGRHKPWDFPSVHNDL | 2.58
QEHKLLHWNGRHKPWDFPSVHNDL | 2.83
QEEKLLHWNGRHKPWDFPSVHNDL | 3.51
QEGKLLHWNGRHKPWDFPSVHNDL | 2.6
QENKLLHWNGRHKPWDFPSVHNDL | 2.84
QEVKLLHWNGRHKPWDFPSVHNDL | 2.5
QEIKLLHWNGRHKPWDFPSVHNDL | 2.24
QERKLLHWNGRHKPWDFPSVHNDL | 1.95
QEYKLLHWNGRHKPWDFPSVHNDL | 2.19
QEMKLLHWNGRHKPWDFPSVHNDL | 3.06
QESKLLHWNGRHKPWDFPSVHNDL | 2.69
QEWKLLHWNGRHKPWDFPSVHNDL | 2.24
QEPKLLHWNGRHKPWDFPSVHNDL | 2.33
QEDKLLHWNGRHKPWDFPSVHNDL | 3.47
QEAGLLHWNGRHKPWDFPSVHNDL | 2.89
QEADLLHWNGRHKPWDFPSVHNDL | 2.67

Variant | protein stability index
QEAFLLHWNGRHKPWDFPSVHNDL | 2
QEAELLHWNGRHKPWDFPSVHNDL | 3.28
QEAALLHWNGRHKPWDFPSVHNDL | 2.81
QEACLLHWNGRHKPWDFPSVHNDL | 2.3
QLAKLLHWNGRHKPWDFPSVHNDL | 1.96
QSAKLLHWNGRHKPWDFPSVHNDL | 2.04
QCAKLLHWNGRHKPWDFPSVHNDL | 1.97
QTAKLLHWNGRHKPWDFPSVHNDL | 2.18
QDAKLLHWNGRHKPWDFPSVHNDL | 2.65
QNAKLLHWNGRHKPWDFPSVHNDL | 2.48
QGAKLLHWNGRHKPWDFPSVHNDL | 2.39
QRAKLLHWNGRHKPWDFPSVHNDL | 2.17
QYAKLLHWNGRHKPWDFPSVHNDL | 2.04
QVAKLLHWNGRHKPWDFPSVHNDL | 1.89
QHAKLLHWNGRHKPWDFPSVHNDL | 2.21
QIAKLLHWNGRHKPWDFPSVHNDL | 1.78
QMAKLLHWNGRHKPWDFPSVHNDL | 1.45
QQAKLLHWNGRHKPWDFPSVHNDL | 2.85
QPAKLLHWNGRHKPWDFPSVHNDL | 2.58
QKAKLLHWNGRHKPWDFPSVHNDL | 2.18
QFAKLLHWNGRHKPWDFPSVHNDL | 1.58

Variant | protein stability index
QWAKLLHWNGRHKPWDFPSVHNDL | 2.2
QAAKLLHWNGRHKPWDFPSVHNDL | 1.89
WEAKLLHWNGRHKPWDFPSVHNDL | 2.21
CEAKLLHWNGRHKPWDFPSVHNDL | 1.75
DEAKLLHWNGRHKPWDFPSVHNDL | 3.54
REAKLLHWNGRHKPWDFPSVHNDL | 2.48
TEAKLLHWNGRHKPWDFPSVHNDL | 2.49
HEAKLLHWNGRHKPWDFPSVHNDL | 2.35
FEAKLLHWNGRHKPWDFPSVHNDL | 1.65
PEAKLLHWNGRHKPWDFPSVHNDL | 2.85
NEAKLLHWNGRHKPWDFPSVHNDL | 2.84
YEAKLLHWNGRHKPWDFPSVHNDL | 1.79
SEAKLLHWNGRHKPWDFPSVHNDL | 2.51
IEAKLLHWNGRHKPWDFPSVHNDL | 1.69
LEAKLLHWNGRHKPWDFPSVHNDL | 2.1
VEAKLLHWNGRHKPWDFPSVHNDL | 2
KEAKLLHWNGRHKPWDFPSVHNDL | 2.49
EEAKLLHWNGRHKPWDFPSVHNDL | 3.02
AEAKLLHWNGRHKPWDFPSVHNDL | 2.68
GEAKLLHWNGRHKPWDFPSVHNDL | 2.65
MEAKLLHWNGRHKPWDFPSVHNDL | 2.35

Variants of: B2
Experiment: as above
Conditions: c terminus: a fixed tail appended

Variant | protein stability index
FPELGYSYGGGSNSSQHSEGSRSS | 3.03
FPELGYSYGGGSLSSQHSEGSRSS | 3.18
FPELGYSYGGGSQSSQHSEGSRSS | 2.8
FPELGYSYGGGSCSSQHSEGSRSS | 2.22
FPELGYSYGGGSWSSQHSEGSRSS | 1.91
FPELGYSYGGGSASSQDSEGSRSS | 3.08
FPELGYSYGGGSASSQWSEGSRSS | 2.77
FPELGYSYGGGSASSQASEGSRSS | 3.12
FPELGYSYGGGSASSQLSEGSRSS | 2.77
FPELGYSYGGGSASSQCSEGSRSS | 3.1
FPELGYSYGGGSASSQISEGSRSS | 2.74
FPELGYSYGGGSASSQMSEGSRSS | 2.62
FPELGYSYGGGSASSQKSEGSRSS | 3.12
FPELGYSYGGGSASSQRSEGSRSS | 2.61
FPELGYSYGGGSASSQHSEWSRSS | 2.32
FPELGYSYGGGSASSQHSEQSRSS | 3.27
FPELGYSYGGGSASSQHSEDSRSS | 3.7
FPELGYSYGCGSASSQHSEGSRSS | 2.2
FPELGYSYGSGSASSQHSEGSRSS | 3.45
FPELGYSYGIGSASSQHSEGSRSS | 2.81
FPELGYSYGRGSASSQHSEGSRSS | 2.74
FPELGYSYGTGSASSQHSEGSRSS | 2.78
FPELGYSYGFGSASSQHSEGSRSS | 2.22
FPELGYSYGLGSASSQHSEGSRSS | 2.62
FPELGYSYGNGSASSQHSEGSRSS | 3.55

Variant | protein stability index
FPELGYSYGPGSASSQHSEGSRSS | 3.3
FPELGYSYGGFSASSQHSEGSRSS | 2.28
FPELGYSYGGCSASSQHSEGSRSS | 2.7
FPELGYSYGGMSASSQHSEGSRSS | 2.73
FPELGYSYGGHSASSQHSEGSRSS | 3.29
FPELGYSYGGNSASSQHSEGSRSS | 2.98
FPELGYSYGGDSASSQHSEGSRSS | 3.35
FPELGYSYGGGSASSQHSEGPRSS | 3.43
FPELGYSYGGGSASSQHSEGERSS | 3
FPELGYSYGGGSASSQHSEGQRSS | 3.41
FPELGYSYGGGSASSQHSEGCRSS | 3.3
FPELGYSYGGGSASSQHSEGWRSS | 2.29
FPELGYSYGGGSASSNHSEGSRSS | 3.28
FPELGYSYGGGSASSVHSEGSRSS | 2.7
FPELGYSYGGGSASSLHSEGSRSS | 2.83
FPELPYSYGGGSASSQHSEGSRSS | 2.58
FPELTYSYGGGSASSQHSEGSRSS | 3.96
FPELYYSYGGGSASSQHSEGSRSS | 2.5
FPELKYSYGGGSASSQHSEGSRSS | 3.98
FPELEYSYGGGSASSQHSEGSRSS | 4.81
FPELIYSYGGGSASSQHSEGSRSS | 2.93
FPELCYSYGGGSASSQHSEGSRSS | 3.52
FPELSYSYGGGSASSQHSEGSRSS | 3.52
IPELGYSYGGGSASSQHSEGSRSS | 5.21
SPELGYSYGGGSASSQHSEGSRSS | 4.99

Variant | protein stability index
WPELGYSYGGGSASSQHSEGSRSS | 4.25
QPELGYSYGGGSASSQHSEGSRSS | 5.03
FPELGYSYTGGSASSQHSEGSRSS | 3.32
FPELGYSYRGGSASSQHSEGSRSS | 2.91
FPELGYSYSGGSASSQHSEGSRSS | 3.27
FPELGYSYDGGSASSQHSEGSRSS | 4.05
FPELGYSYPGGSASSQHSEGSRSS | 3.37
FPELGYSYKGGSASSQHSEGSRSS | 3.18
FPELGYSYHGGSASSQHSEGSRSS | 2.93
FPELGYSYEGGSASSQHSEGSRSS | 4.39
FPELGYSYGGGSAQSQHSEGSRSS | 2.99
FPELGYSYGGGSADSQHSEGSRSS | 3.61
FPELGYSYGGGSAMSQHSEGSRSS | 2.59
FPELGYSYGGGSAGSQHSEGSRSS | 3.44
FPELGYSYGGGSARSQHSEGSRSS | 3.25
FPELGYSYGGGSACSQHSEGSRSS | 2.71
FPELGYSYGGGSAYSQHSEGSRSS | 2.37
FQELGYSYGGGSASSQHSEGSRSS | 3.02
FSELGYSYGGGSASSQHSEGSRSS | 3.34
FKELGYSYGGGSASSQHSEGSRSS | 4.49
FHELGYSYGGGSASSQHSEGSRSS | 2.1
FPGLGYSYGGGSASSQHSEGSRSS | 2.12
FPRLGYSYGGGSASSQHSEGSRSS | 3.41
FPFLGYSYGGGSASSQHSEGSRSS | 2.93
FPTLGYSYGGGSASSQHSEGSRSS | 2.19

Variant | protein stability index
FPELGYSHGGGSASSQHSEGSRSS | 3.43
FPELGYSPGGGSASSQHSEGSRSS | 3.97
FPELGYSNGGGSASSQHSEGSRSS | 4.09
FPELGYWYGGGSASSQHSEGSRSS | 1.74
FPELGYKYGGGSASSQHSEGSRSS | 3.21
FPELGYVYGGGSASSQHSEGSRSS | 2.42
FPELGYEYGGGSASSQHSEGSRSS | 3.68
FPELGYFYGGGSASSQHSEGSRSS | 2.72
FPELGYYYGGGSASSQHSEGSRSS | 2.19
FPELGYSYGGGSASSQHEEGSRSS | 3.5
FPELGYSYGGGSASSQHCEGSRSS | 2.9
FPELGYSYGGGSASSQHLEGSRSS | 2.86
FPELGYSYGGGSASSQHGEGSRSS | 3.12
FPELGYSYGGGSASSQHSEGSRGS | 3.26
FPELGYSYGGGSASSQHSEGSRLS | 2.49
FPELGYSYGGGSASSQHSEGSRRS | 3.05
FPELGYSYGGGSASSQHSEGSRHS | 3.33
FPELGYSYGGGSASSQHSEGSRMS | 2.33
FPELGYSYGGGSASSQHSEGSRSF | 2.57
FPELGYSYGGGSASSQHSEGSRSG | 3.01
FPELGYSYGGGSASSQHSEGSRSN | 3.56
FPELGYSYGGGSASSQHSEGSRSL | 2.94
FPELGYSYGGGSASSQHSEGSRSY | 2.58
FPELGYSYGGGSASSQHSEGSRSA | 3.5
FPELGYSYGGGSASSQHSEGSESS | 3.71

Variant | protein stability index
FPELGYSYGGGSASSQHSEGSVSS | 3.18
FPELGYSYGGGSASSQHSEGSDSS | 3.42
FPELGYSYGGGSASSQHSEGSFSS | 2.79
FPELGYSYGGGSASSQHSNGSRSS | 2.59
FPELGYSYGGGSASSQHSIGSRSS | 2.94
FPELGYSYGGGSASSQHSYGSRSS | 2.41
FPELGYSYGGGSASSQHSGGSRSS | 2.87
FPELGYSYGGGSASSQHSLGSRSS | 2.06
FPELGYSYGGGSASRQHSEGSRSS | 2.92
FPELGYSYGGGSASVQHSEGSRSS | 3.2
FPELGGSYGGGSASSQHSEGSRSS | 3.81
FPELGKSYGGGSASSQHSEGSRSS | 3.37
FPELGTSYGGGSASSQHSEGSRSS | 3.7
FPELGVSYGGGSASSQHSEGSRSS | 3.75
FPELGASYGGGSASSQHSEGSRSS | 3.87
FPELGMSYGGGSASSQHSEGSRSS | 3.71
FPELGESYGGGSASSQHSEGSRSS | 4.76
FPELGSSYGGGSASSQHSEGSRSS | 3.98
FPEMGYSYGGGSASSQHSEGSRSS | 2.09
FPETGYSYGGGSASSQHSEGSRSS | 3.77
FPEEGYSYGGGSASSQHSEGSRSS | 4.31
FPENGYSYGGGSASSQHSEGSRSS | 2.35
FPEFGYSYGGGSASSQHSEGSRSS | 3.16
FPERGYSYGGGSASSQHSEGSRSS | 2.84
FPEYGYSYGGGSASSQHSEGSRSS | 2.57
